We go through 50 sequences from the domain aggregation screens of Martell et al. (2025).

This data set in a line: soluble fraction after stress (log2 fold change); higher = more stays soluble; pooled small domains, quantitative proteomics. The settings on record: stress: pH 4. The gist of the method:
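Aggregation propensity here comes from the fold change in the soluble amount of each small protein domain after acid stress, measured in pooled custom libraries by high-throughput quantitative proteomics. The acid stress was pH 4. On the log2 scale, higher values mean more of the domain stayed soluble.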
“HMSNLENSLNESLSLLKSNKYNEALEILKKIEIEDSRVFFLLGTIYSVMKNINLGEEFLIKASK”: the “soluble fraction (log2)” value is -1.32.

Regarding “HMSNLGLQIVRTLTDAGKGVVFITHKLKEALTIADRINVLRRGKVVGDADPKTASESQIAEMMVGRPVQL”, the “soluble fraction (log2)” value was found to be 0.0653. The value for “HMSNMWVWSKLSGIQWMDAWEDRFHGNPNTVITRLKTNKTVRVEVYTETEQEALDIKKLFGGSIRKLV” was 0.103; that for “HMSNRFIQFRQRAIDWLNSDRDFNAGILLLEESGFKPGVVAKLKRHGVNGPEAKKRLKFLINELVKAWA” was -0.374.

For “HMSNVKVYPNPTSGKLTIDAENYKGVEVYDTSGRLIVKSELRTIDLEEQSKGLYLLKVNANGTTQEFKVFK”, the “soluble fraction (log2)” value is -0.977. Next, “HMSNYLKSVEVFDPITNKWSYVSAMKVRRGYVAVVATMDRLYAIGGYDGENYLSTVEMYNPDTN”: 0.0787; “HMSPAVSLITGKLGAETYYKQGLKKAKEKDYEGALDDLIKAYEFFPDKKIKTQVDKLASFLGKPPIL”: 0.0374.

Turning to “HMSPIKAGDLVKITGTKYYRGQTIPSWVKAKNWFVHSVSGDRAVINKSEDGKNAIMSPVKVSNLALVT”, the “soluble fraction (log2)” value stood at 0.0492. As to “HMSPILTPDQATKAYGKDGVLYIHSNKERTIYIYDVTGRTVRILEAVEGENQINGLEKGIYFLEGQKVAV”, the “soluble fraction (log2)” value was -0.378. Next, “HMSPLQLGNYNTLRITRFTDHGAYLDGGDVGEILMPKTYVLPEMKPGDEVRVFVYLDQEERLVGTTET”: -1.44. Next, “HMSPPVIQQGQDVRLIYKGTGFAVSNEGKALNTAADGQVARARTGGGQTVSGIARPGGIIEIT”: 0.103; “HMSPQPPNQEAVRTRILDQAAHLFLTIGYAETTVRRIAGAVGIKAASLYHHFGSKDEVFESILIR”: 0.21. Next, “HMSPRADRSVNLDVGETVQIDDWGADGTAQIRYRGAPWTAVLRPGHTPHPGPHRVIELVGSRLLVEP”: -0.746. Regarding “HMSPRAIYVTTSDLNMRMQPSPNAYKRGVAPRGTELLVVEWGDDWSKVIFEGDTAYAASRYLSYVKDEP”, the “soluble fraction (log2)” value was -0.419. The value for “HMSQDEVVADMKADLGPDADNIIRSNIQWADGLVRKGILTESEREELDVMGGTPEAQRILVKLRTMQG” was -0.539; that for “HMSQDTLIENGKVFLIHKVVAGQTLYGLSKAYNITIEDIIKYNPQAENGIKIGEDIKIFLKEE” was -1.1. Next, “HMSQEHTVPDYKDMEATVVYADLTQKGLNYEIAQETSPTIKEGNVTQTIPGMNEKVVSGDTITVFVSTGTG”: -0.907; “HMSQIDLQIGHKIKSKRRKLGISQADMAKKLYISPSYLNLIESGKRKINVDLLLKLSNELGIEMSDIS”: 0.33; “HMSQIILSARSGHAALRHRLGELGYTFADKEFDDIYERFLEVADQKKEVYDEDLESIVQERQRD”: -0.559. The value for “HMSQITEADYIPNTDKTWGELMEETGESLPNLVERYNNEMTKSNGKEQPQSIIQRIIEDYQMVS” was -0.0864. For “HMSQLSDEQELRDIARGIIEGNPNEAEKYRAGRTGLLGFFVGKLMAETEGKANPRLASRILKELLE”, the “soluble fraction (log2)” value was -0.441. Next, “HMSQLSQIVDAFGGLRPFARALNKPPSTVQYWIEKGGIPASVVSPIMKLSEEKGLGLSRDQVSAAVS”: 0.0542; “HMSQLTVGTVVTGNASLQTQGLKLPSFASGSRPASPNIGQMIWNSSDAKAQIWNGSEWDDVG”: at least 0.43. The value for “HMSQNVSFTVDSGQAGLRLDVFLSQADPAFSRSQIKYAIEEGDVTVNGKEPKVSQHLKDGDIVELHLE” was 0.114; that for “HMSQQEAQLNSLVKIYESMKPKDAARIFDTLDMDVLLDVVMRMKEARSAAVLAEMTPDRAKEVTLQLAD” was -1.8; that for “HMSQTDQALRHLIREAWATLPQRQQQAVELAYYEGLPDTEIAARLNQPVEEVKTSIVLGMAHLREALHSY” was -0.198.

“HMSQTDTDAKDARQKILALLSDGEWHQKTELLKIDAPKEAVSNAIRYLVLEELISIDHAKVRA”: the “soluble fraction (log2)” value is -0.465.

For “HMSQTVKYVNTTSGLNMRTGPATSYAKITTIAYGQSVNVLSTSNGWSKINYSGSTGYVSSQYLQSKKPS”, the “soluble fraction (log2)” value came to 0.183.

Consider “HMSQVHYAVLFKNASAAEATEIVTYARETLGVQDIKINANGDILVPEDKVEEMRVSMSIAGFPK”, for which the “soluble fraction (log2)” value was -0.349. Next, “HMSQVSTKYINVSSAYVRSKPSKDGEIVTSLIKNTDVTVTGENGDWYKIKFNNYEGYIFKELLSDSKLEE”: -0.35; “HMSRAMFEMHADWQPTDSIRGLLGRAGLPTDIAKLDQSRIGDFVNHWFGKPDRNTADSWNGLLVGWLKRTQ”: -0.787; “HMSREEFLAGLEEALAGEVPASVIRENLNYYNSYISQEMAKGRTVDEIVDEIGEPRIVARTIIDSSEAAGE”: -0.246.

Turning to “HMSRELVILGNSMLNNALKAFHVSPASIKKKHWDKLILDYHLESKNNILIDIALGKRINVMVAHQLTSIID”, the “soluble fraction (log2)” value is at least 0.43.

As for “HMSREVTVPPLSGLTLRDAARTLAERGLLMEAEGQGAVHRQDPPAGTRVPTGTPVRVFLTLPEQNS”, the “soluble fraction (log2)” value is -0.511. On to “HMSRGTLFVDVRGAVAKPGVYELPEKSRVFQAVEAAGGLLPEALERLVNQAAELTDGQQVYIPFEGEE”, for which the “soluble fraction (log2)” value was found to be 0.429.

On to “HMSRLLRTDAHLQYAAERGLPVTASAYTPVFAGAKQYTGRIESFDAQTIRFADGPAVERKAVARLEAE”, for which the “soluble fraction (log2)” value was found to be 0.138.

Consider “HMSRLLTTRQREVFEVATREGFWDVPRRINLSELAKVLGVAKSTLSSQLQRIESAVFHAFTDEIRRQS”, for which the “soluble fraction (log2)” value amounted to 0.313. The value for “HMSRMLTVKQREVFDLAMREGYWETPRRITLTMLASLLSVSKSTLSVQLHKIEGTVLSSFSDEVRRRS” was -0.011; that for “HMSRQDYLQTIYRLSVGKGYTTNKKIADFLSVSKPSVTEMIGKLQGEGLVAMDGAHIFLTEDGAEQ” was 0.108. Next, “HMSRVTVDVNPDVLQWAIDKKGKGDIKNKFPKIDEWLNGISKPTIHQLENFAKYVSVPFGYLLLSKPPVE”: 0.00473; “HMSRYQDIANDIEKDIIEKKYTRKLPEQFELAQKYQTSRVTIVHALKILQNKKLIRTVKGHGTFITS”: at least 0.43; “HMSSDEDELESIIKRVFADNPIELERLQNGEDKLIKFFMGLVMRQTKGKYPPKIIIDLLNKS”: -1.54. The value for “HMSSDLDQYMKNIRKQHNLSKREFAKQLGISAATIVRIENGITVSPSKNLISKLAYYLQKSEVEILQDIQS” was -0.393; that for “HMSSEMATLRSIVDNKQAEKVHGMMVDMFTASAMVQVYDKVNDENQAKMREMLKTQKGFQRMADFALSKI” was -0.535.

Consider “HMSSEPASLVGKTGVAASVLRPSGRVEVNGEYYDAVSINGFIEKGESVFVHKYENAQLYVSKNSE”, for which the “soluble fraction (log2)” value is -0.183. The value for “HMSSESIKTDKNVGVGSTLEELEKAYGSDYTLSGKMYRYYQDDNSKYMYFFILNDVVQYYGYGIDV” was -1.38; that for “HMSSIDLTARSGRAALKHRLSLLGYEFSKIELETLYVRFIELADEKKLLHDEDLIELVKEKN” was -0.655.

“HMSSIRDVVPEGLLSDREKLVLVLAFDRDLDGPDMARTLGISANTVRVLKARALKKLRQAGIQP”: the “soluble fraction (log2)” value is -0.34.

For the sequence “HMSSIVLTARSGRAALAYRVKSIGVDLSKDQLDLVYKTFLGFADKKKEIIDTDIPQILKASGI”, the “soluble fraction (log2)” value was -0.265. The value for “HMSSIYVYPNPTANRIYIQADNIKKAELFDLMGRKVRSTNQPQIDISRLSRGNYILQVKTQNNTQSFKIIK” was 0.0347.
